Data from PMC4559445.

Biological target: PbTpk2^(226-583)-His6 (P. brasiliensis)

## PbGpb1-GST (natural protein)
  in vitro kinase activity (ADP-Glo) of 3 μM PbTpk2 on 50 μM kemptide in the presence of 4 μM PbGpb1, relative to PbTpk2 with kemptide alone: 40 % reduction
